Patent US20210032365A1 (Chugai, published 2021)

T1: human C1s (human, UniProt P09871 16-688)
T1 construct: Analyte in the Biacore assays; also called hC1s; serum-derived human C1s (CompTech)
T1 sequence: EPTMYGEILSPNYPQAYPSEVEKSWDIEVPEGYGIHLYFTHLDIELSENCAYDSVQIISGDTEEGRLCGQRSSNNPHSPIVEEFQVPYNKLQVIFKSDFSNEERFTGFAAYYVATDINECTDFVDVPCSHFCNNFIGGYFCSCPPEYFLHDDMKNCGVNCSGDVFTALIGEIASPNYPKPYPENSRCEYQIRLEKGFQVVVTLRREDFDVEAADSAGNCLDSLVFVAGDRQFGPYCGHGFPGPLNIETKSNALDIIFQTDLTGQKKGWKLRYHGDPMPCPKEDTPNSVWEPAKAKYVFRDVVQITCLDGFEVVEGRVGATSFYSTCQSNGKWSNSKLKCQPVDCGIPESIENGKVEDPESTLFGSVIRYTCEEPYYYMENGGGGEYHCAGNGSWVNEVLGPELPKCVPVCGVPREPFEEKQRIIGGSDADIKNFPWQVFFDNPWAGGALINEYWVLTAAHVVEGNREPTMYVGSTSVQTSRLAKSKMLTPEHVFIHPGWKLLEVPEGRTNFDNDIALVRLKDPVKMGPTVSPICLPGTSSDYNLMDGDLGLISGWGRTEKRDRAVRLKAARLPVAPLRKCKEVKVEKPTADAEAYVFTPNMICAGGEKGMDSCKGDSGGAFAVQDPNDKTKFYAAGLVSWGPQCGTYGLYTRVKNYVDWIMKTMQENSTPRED


Assays:
[1] = target: T1, human C1s; test: SPR (Biacore T200, 37C), Ab captured on protein A/G; pH 5.8, 1.2 mM Ca
Procedure: (§1) Each antibody was captured onto the sensor surface by protein A/G. Antibody capture levels were aimed at 200 resonance unit (RU). Serum-derived human C1s (CompTech) or recombinant C1s prepared in EXAMPLE 1 was injected at 50 nM, followed by dissociation. The sensor surface was regenerated in each cycle with 10 mM Glycine-HCl, pH 1.5. […] The ratio of KD 5.8+ to KD 7.4+(“KD 5+/7+”) and that of KD 5.8− to KD 7.4+(“KD 5−/7+”) were calculated. When the KD 5+/7+ or KD 5−/7+ of a variant is larger than that of the parent antibody IPN009VH2-SG4GK/IPN009VK3-SK1, that variant is considered to be “pH”- or “pH and Ca”-dependent, respectively. When binding response in 5(+) buffer and/or in 5(−) buffer of a variant is much lower than that of IPN09VH2/IPN009VK3, that variant is also considered as “pH”- and/or “pH and Ca”-dependent. Therefore, such mutations are effective to generate “pH”- and/or “pH and Ca”-dependent antibody. To further enhance “pH” and/or “pH and Ca” dependency, a combination of histidine mutations was conducted. Antibodies with combinations of histidine mutations were evaluated using Biacore by the method described above.
(§2) C1_1IPN92H0033 (SEQ ID NO: 17)-SG4GK/IPN93L0024 (SEQ ID NO: 18)-SK1 (IPN92H0033/IPN93L0024) was selected for further optimization. Histidine, Lysine, Arginine, aspartic acid, glutamic acid, and glutamine scanning was conducted for CDRs and certain positions of FRs of IPN92H0033/IPN93L0024. Variants with a mutation were generated and purified, and evaluated using Biacore by the method mentioned above. All variants were evaluated using Biacore as mentioned above. Mutations that improved “pH” and/or “pH and Ca” dependency were selected for the combination.

[2] = target: T1, human C1s; test: SPR; KD at pH 5.8 (3 uM Ca) over KD at pH 7.4 (1.2 mM Ca)
Procedure: as §1, §2

[3] = target: T1, human C1s; test: SPR (Biacore T200, 37C), Ab captured on protein A/G; pH 5.8, 3 uM Ca
Procedure: as §1, §2

[4] = target: T1, human C1s; test: SPR; KD at pH 5.8 (1.2 mM Ca) over KD at pH 7.4 (1.2 mM Ca)
Procedure: as §1, §2

Binder	Kd [1] [nM]	koff [1] [s⁻¹]	kon [1] [M⁻¹ s⁻¹]	KD 5(-)/7(+) [2]	Kd [3] [nM]	koff [3] [s⁻¹]	kon [3] [M⁻¹ s⁻¹]	KD 5(+)/7(+) [4]
C1_IPN92H0145-SG4GK/IPN93L0024-SK1 (antibody, human IgG4 S228P, kappa, name in Kabat numbering, V domains shown, Substitutions from IPN009VH2, Kabat numbering; also called IPN92H0145/IPN93L0024) VH: EVMLVESGGGLVKPGGSLRLSCAASGFTFSNYAMSWVRQAPGKGLEWVATISSGGSRTYYLDSVKGRFTISRDNSKDTLYLQMNSLRAEDTALYYCARLFTGHAMDYWGQGTLVTVSS VL: QIVLTQSPATLSLSPGERATLSCTASSSVSSSYLHWYQQKPGKAPKLWIYSTSNLASGVPSRFSGSGSGTDYTLTISSLQPEDFATYYCHQYYRLHPITFGQGTKLEIKR	19.2	0.0496	2.58e+06	1.36	6.4	0.003	469000	4.1
C1_IPN92H0156-SG4GK/IPN93L0024-SK1 (antibody, human IgG4 S228P, kappa, name in Kabat numbering, V domains shown, Substitutions from IPN009VH2, Kabat numbering; also called IPN92H0156/IPN93L0024) VH: EVMLVESGGGLVKPGGSLRLSCAASGFTFSNYAMSWVRQAPGKGLEWVATISSGGSHTKYLDSVKGRFTISRDNSKDTLYLQMNSLRAEDTALYYCARLFTGHAMDYWGQGTLVTVSS VL: QIVLTQSPATLSLSPGERATLSCTASSSVSSSYLHWYQQKPGKAPKLWIYSTSNLASGVPSRFSGSGSGTDYTLTISSLQPEDFATYYCHQYYRLHPITFGQGTKLEIKR	14.8	0.00948	641000	4.62	9.8	0.00632	645000	7
C1_IPN92H0157-SG4GK/IPN93L0024-SK1 (antibody, human IgG4 S228P, kappa, name in Kabat numbering, V domains shown, Substitutions from IPN009VH2, Kabat numbering; also called IPN92H0157/IPN93L0024) VH: EVMLVESGGGLVKPGGSLRLSCAASGFTFSNYAMSWVRQAPGKGLEWVATISSGGSHTRYLDSVKGRFTISRDNSKDTLYLQMNSLRAEDTALYYCARLFTGHAMDYWGQGTLVTVSS VL: QIVLTQSPATLSLSPGERATLSCTASSSVSSSYLHWYQQKPGKAPKLWIYSTSNLASGVPSRFSGSGSGTDYTLTISSLQPEDFATYYCHQYYRLHPITFGQGTKLEIKR	18.8	0.012	636000	5.07	10.3	0.00583	564000	9.3
C1_IPN92H0166-SG4GK/IPN93L0024-SK1 (antibody, human IgG4 S228P, kappa, name in Kabat numbering, V domains shown, Substitutions from IPN009VH2, Kabat numbering; also called IPN92H0166/IPN93L0024) VH: EVMLVESGGGLVKPGGSLRLSCAASGFTFSNYAMSWVRQAPGKGLEWVATISSGGSHTYYEDSVKGRFTISRDNSKDTLYLQMNSLRAEDTALYYCARLFTGHAMDYWGQGTLVTVSS VL: QIVLTQSPATLSLSPGERATLSCTASSSVSSSYLHWYQQKPGKAPKLWIYSTSNLASGVPSRFSGSGSGTDYTLTISSLQPEDFATYYCHQYYRLHPITFGQGTKLEIKR	3.77	0.00226	600000	3.84	6.75	0.687	1.02e+08	2.1
C1_IPN92H0159-SG4GK/IPN93L0024-SK1 (antibody, human IgG4 S228P, kappa, name in Kabat numbering, V domains shown, Substitutions from IPN009VH2, Kabat numbering; also called IPN92H0159/IPN93L0024) VH: EVMLVESGGGLVKPGGSLRLSCAASGFTFSNYAMSWVRQAPGKGLEWVATISSGGSHTYDLDSVKGRFTISRDNSKDTLYLQMNSLRAEDTALYYCARLFTGHAMDYWGQGTLVTVSS VL: QIVLTQSPATLSLSPGERATLSCTASSSVSSSYLHWYQQKPGKAPKLWIYSTSNLASGVPSRFSGSGSGTDYTLTISSLQPEDFATYYCHQYYRLHPITFGQGTKLEIKR	16.6	0.00699	421000	3.57	7.36	0.00401	544000	8.1
C1_IPN92H0165-SG4GK/IPN93L0024-SK1 (antibody, human IgG4 S228P, kappa, name in Kabat numbering, V domains shown, Substitutions from IPN009VH2, Kabat numbering; also called IPN92H0165/IPN93L0024) VH: EVMLVESGGGLVKPGGSLRLSCAASGFTFSNYAMSWVRQAPGKGLEWVATISSGGSHTYYDDSVKGRFTISRDNSKDTLYLQMNSLRAEDTALYYCARLFTGHAMDYWGQGTLVTVSS VL: QIVLTQSPATLSLSPGERATLSCTASSSVSSSYLHWYQQKPGKAPKLWIYSTSNLASGVPSRFSGSGSGTDYTLTISSLQPEDFATYYCHQYYRLHPITFGQGTKLEIKR	3.74	0.00228	608000	4.62	8.18	0.715	8.74e+07	2.1
C1_IPN92H0160-SG4GK/IPN93L0024-SK1 (antibody, human IgG4 S228P, kappa, name in Kabat numbering, V domains shown, Substitutions from IPN009VH2, Kabat numbering; also called IPN92H0160/IPN93L0024) VH: EVMLVESGGGLVKPGGSLRLSCAASGFTFSNYAMSWVRQAPGKGLEWVATISSGGSHTYELDSVKGRFTISRDNSKDTLYLQMNSLRAEDTALYYCARLFTGHAMDYWGQGTLVTVSS VL: QIVLTQSPATLSLSPGERATLSCTASSSVSSSYLHWYQQKPGKAPKLWIYSTSNLASGVPSRFSGSGSGTDYTLTISSLQPEDFATYYCHQYYRLHPITFGQGTKLEIKR	13.7	0.00634	461000	4.82	7.32	0.00411	562000	9
C1_IPN92H0147-SG4GK/IPN93L0024-SK1 (antibody, human IgG4 S228P, kappa, name in Kabat numbering, V domains shown, Substitutions from IPN009VH2, Kabat numbering; also called IPN92H0147/IPN93L0024) VH: EVMLVESGGGLVKPGGSLRLSCAASGFTFSNYAMSWVRQAPGKGLEWVATISSGGSHDYYLDSVKGRFTISRDNSKDTLYLQMNSLRAEDTALYYCARLFTGHAMDYWGQGTLVTVSS VL: QIVLTQSPATLSLSPGERATLSCTASSSVSSSYLHWYQQKPGKAPKLWIYSTSNLASGVPSRFSGSGSGTDYTLTISSLQPEDFATYYCHQYYRLHPITFGQGTKLEIKR	13.2	0.00589	445000	1.58	3.23	–	–	6.4
C1_IPN92H0188-SG4GK/IPN93L0024-SK1 (antibody, human IgG4 S228P, kappa, name in Kabat numbering, V domains shown, Substitutions from IPN009VH2, Kabat numbering; also called IPN92H0188/IPN93L0024) VH: EVMLVESGGGLVKPGGSLRLSCAASGFTFSNYAMSWVRQAPGKGLEWVATISSGGSHTYYLDSVDGRFTISRDNSKDTLYLQMNSLRAEDTALYYCARLFTGHAMDYWGQGTLVTVSS VL: QIVLTQSPATLSLSPGERATLSCTASSSVSSSYLHWYQQKPGKAPKLWIYSTSNLASGVPSRFSGSGSGTDYTLTISSLQPEDFATYYCHQYYRLHPITFGQGTKLEIKR	8.21	0.00413	504000	2.07	4.21	0.0106	2.53e+06	4
C1_IPN92H0162-SG4GK/IPN93L0024-SK1 (antibody, human IgG4 S228P, kappa, name in Kabat numbering, V domains shown, Substitutions from IPN009VH2, Kabat numbering; also called IPN92H0162/IPN93L0024) VH: EVMLVESGGGLVKPGGSLRLSCAASGFTFSNYAMSWVRQAPGKGLEWVATISSGGSHTYKLDSVKGRFTISRDNSKDTLYLQMNSLRAEDTALYYCARLFTGHAMDYWGQGTLVTVSS VL: QIVLTQSPATLSLSPGERATLSCTASSSVSSSYLHWYQQKPGKAPKLWIYSTSNLASGVPSRFSGSGSGTDYTLTISSLQPEDFATYYCHQYYRLHPITFGQGTKLEIKR	11.5	0.00524	456000	2.72	4.89	0.00784	1.6e+06	6.4
